Our source for the retention time (min), peak 2 and retention time (min), peak 1 values is patent US20100150860A1.

Experiment [1] addresses human fibrin (Sigma, F5386) (human) (UniProt P02671). In words: SEC-HPLC of the mixture after 1 h at 37 C; second peak (thrombin alone runs at 18.778). (SEC sorts molecules by how far they enter the pores of the column.)
Experiment [2] shares this target. Briefly: SEC-HPLC of the mixture after 1 h at 37 C; peak of the bound pair.

Sequence of human fibrin (Sigma, F5386) (human) (P02671 36-629, chain 1 of 3): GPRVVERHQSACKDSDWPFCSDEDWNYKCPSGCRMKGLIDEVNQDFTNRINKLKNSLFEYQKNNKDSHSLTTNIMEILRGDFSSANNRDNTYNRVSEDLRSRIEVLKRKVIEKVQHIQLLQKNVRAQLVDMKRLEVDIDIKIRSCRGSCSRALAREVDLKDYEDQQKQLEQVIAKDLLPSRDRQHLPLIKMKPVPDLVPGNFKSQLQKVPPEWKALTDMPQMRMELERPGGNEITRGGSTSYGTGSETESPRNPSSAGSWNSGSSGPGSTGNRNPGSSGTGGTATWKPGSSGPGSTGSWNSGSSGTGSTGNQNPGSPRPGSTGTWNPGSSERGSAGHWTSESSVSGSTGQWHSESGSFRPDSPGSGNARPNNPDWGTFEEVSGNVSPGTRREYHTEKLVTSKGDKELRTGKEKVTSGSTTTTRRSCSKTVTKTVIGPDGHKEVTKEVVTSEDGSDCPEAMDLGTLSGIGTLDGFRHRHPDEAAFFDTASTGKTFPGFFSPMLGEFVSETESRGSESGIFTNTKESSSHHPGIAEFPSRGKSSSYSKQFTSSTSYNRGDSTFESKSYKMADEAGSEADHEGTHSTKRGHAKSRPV
Sequence of human fibrin (Sigma, F5386) (human) (P02675 45-491, chain 2 of 3, further chain): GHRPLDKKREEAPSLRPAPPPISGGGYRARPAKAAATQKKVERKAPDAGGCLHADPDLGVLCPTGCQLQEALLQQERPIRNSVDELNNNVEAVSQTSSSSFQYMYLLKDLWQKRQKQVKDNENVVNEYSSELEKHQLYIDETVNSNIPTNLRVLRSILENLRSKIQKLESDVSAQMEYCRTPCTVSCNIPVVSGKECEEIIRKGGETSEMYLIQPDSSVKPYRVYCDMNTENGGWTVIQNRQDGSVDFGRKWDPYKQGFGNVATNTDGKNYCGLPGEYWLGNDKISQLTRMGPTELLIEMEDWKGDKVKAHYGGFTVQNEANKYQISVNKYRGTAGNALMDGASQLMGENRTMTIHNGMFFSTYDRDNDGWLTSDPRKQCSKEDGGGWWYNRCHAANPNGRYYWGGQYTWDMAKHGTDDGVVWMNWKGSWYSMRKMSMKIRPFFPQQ
Sequence of human fibrin (Sigma, F5386) (human) (P02679 other isoform, or with tags, fused parts or gaps, chain 3 of 3, further chain): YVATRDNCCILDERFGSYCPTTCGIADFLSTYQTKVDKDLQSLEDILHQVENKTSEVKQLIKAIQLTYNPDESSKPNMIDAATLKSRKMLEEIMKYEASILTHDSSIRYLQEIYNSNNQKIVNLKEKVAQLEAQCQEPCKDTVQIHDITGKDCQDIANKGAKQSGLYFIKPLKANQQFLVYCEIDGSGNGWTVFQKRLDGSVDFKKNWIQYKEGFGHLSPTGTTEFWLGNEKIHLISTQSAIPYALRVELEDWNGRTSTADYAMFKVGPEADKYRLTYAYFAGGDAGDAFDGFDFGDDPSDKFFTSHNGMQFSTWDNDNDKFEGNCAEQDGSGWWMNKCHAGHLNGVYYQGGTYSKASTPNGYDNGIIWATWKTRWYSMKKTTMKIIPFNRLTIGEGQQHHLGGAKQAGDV

On to “human thrombin (National Institute for the Control of Pharmaceutical and Biological Products, Lot No. 20021105) (from UniProt P00734 328-622) (enzyme)”, for which, in experiment [1], the retention time (min), peak 2 was found to be 18.6 min. In experiment [2], the retention time (min), peak 1 is 12.6 min.
